These results are taken from publication PMC9224406.

Test [1] has as its target BDNF pro-peptide V66M pro-peptide (Homo sapiens) (UniProt P23560). Put plainly: SPR. Conditions: cited from earlier work.
The target in test [2] is BDNF pro-peptide pro-peptide (Homo sapiens) (UniProt P23560). Put plainly: SPR. Conditions: cited from earlier work.
Test [3] has as its target human proBDNF V66M variant (human). Put plainly: SAXS; hproBDNF V66M in solution at five concentrations (0.14–1.45 mg/mL), 50 mM Sodium Phosphate pH 7.0, 283 K; molecular mass from I(0) against BSA and from the Porod volume, compared with the calculated monomer mass.

Chain of BDNF (P23560 129-247): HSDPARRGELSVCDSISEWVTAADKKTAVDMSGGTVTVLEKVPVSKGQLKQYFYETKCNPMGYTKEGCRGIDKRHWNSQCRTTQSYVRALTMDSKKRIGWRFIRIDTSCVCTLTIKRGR
Chain of BDNF pro-peptide V66M pro-peptide (Homo sapiens) (P23560 19-128 V66M): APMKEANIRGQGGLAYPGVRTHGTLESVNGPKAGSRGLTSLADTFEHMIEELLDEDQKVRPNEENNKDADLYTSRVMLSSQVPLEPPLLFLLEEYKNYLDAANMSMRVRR
Chain of BDNF pro-peptide pro-peptide (Homo sapiens) (P23560 19-128): as the sequence (P23560 19-128 V66M) above, with M48V counted along it

BDNF (from UniProt P23560): the Kd in test [1] was 0.12 nM; in test [2] it was 0.42 nM. Regarding “human proBDNF V66M variant (natural protein)”, the stoichiometry N in test [3] was 2.

As usually defined, the Kd is the concentration at which binding is half-saturated. In general, stoichiometry N refers to a count of units in the complex or per binding partner.
